# Experimental data published in patent US20170183403A1 (UNIVERSIT T Z RICH, published 2017).
# B1: NARA1 (antibody, mouse IgG2a, kappa, V domains shown)
# VH: QVQLQQSGAELVRPGTSVKVSCKASGYAFTNYLIEWVKQRPGQGLEWIGVINPGSGGTNYNEKFKGKATLTADKSSSTAYMQLSSLTSDDSAVYFCARWRGDGYYAYFDVWGAGTTVTVSS
# VL: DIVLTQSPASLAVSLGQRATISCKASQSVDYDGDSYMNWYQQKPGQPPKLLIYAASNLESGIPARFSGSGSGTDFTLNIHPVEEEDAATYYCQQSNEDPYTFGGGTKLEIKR
# notes: Mouse monoclonal from hybridoma; Isotype controls used were mouse IgG2a; also called anti-IL2 (NARA1) antibody; monoclonal antibody NARA1
# What was measured:
# Assay in all cases: peptide microarray (RepliTope), Ala mutagenesis set
# Reference peptide no. 12 = target: T1, Reference peptide no. 12
# T1 construct: hIL-2 15-mer, first library, on microarray; also called peptide 12
# T1 peptide: PKLTRMLTFKFYMPK
# Reference peptide no. 13 = target: T2, Reference peptide no. 13
# T2 construct: hIL-2 15-mer, first library, on microarray; also called peptide 13
# T2 peptide: TRMLTFKFYMPKKAT
# Reference peptide no. 47 = target: T3, Reference peptide no. 47
# T3 construct: second library: peptide 11 with Y(65) to Ala; also called peptide 47
# T3 peptide: YKNPKLTRMLTFKFA
# Reference peptide no. 42 = target: T4, Reference peptide no. 42
# T4 construct: second library: peptide 10 with F(62) to Ala; also called peptide 42
# T4 peptide: INNYKNPKLTRMLTA
# Reference peptide no. 44 = target: T5, Reference peptide no. 44
# T5 construct: second library: peptide 12 with F(62) to Ala; also called peptide 44
# T5 peptide: PKLTRMLTAKFYMPK
# Reference peptide no. 52 = target: T6, Reference peptide no. 52
# T6 construct: second library: peptide 11 with F(62) and Y(65) to Ala; also called peptide 52
# T6 peptide: YKNPKLTRMLTAKFA
# Reference peptide no. 11 = target: T7, Reference peptide no. 11
# T7 construct: hIL-2 15-mer, first library, on microarray; also called peptide 11
# T7 peptide: YKNPKLTRMLTFKFY
# Reference peptide no. 43 = target: T8, Reference peptide no. 43
# T8 construct: second library: peptide 11 with F(62) to Ala; also called peptide 43
# T8 peptide: YKNPKLTRMLTAKFY
# Reference peptide no. 45 = target: T9, Reference peptide no. 45
# T9 construct: second library: peptide 13 with F(62) to Ala; also called peptide 45
# T9 peptide: TRMLTAKFYMPKKAT
binder,measurement,setting,value
B1,signal intensity after subtraction of control signal,Reference peptide no. 12,1130 AU
same,signal intensity after subtraction of control signal,Reference peptide no. 13,224 AU
same,signal intensity after subtraction of control signal,Reference peptide no. 47,251 AU
same,signal intensity after subtraction of control signal,Reference peptide no. 42,162 AU
same,signal intensity after subtraction of control signal,Reference peptide no. 44,432 AU
same,signal intensity after subtraction of control signal,Reference peptide no. 52,238 AU
same,signal intensity after subtraction of control signal,Reference peptide no. 11,1190 AU
same,signal intensity after subtraction of control signal,Reference peptide no. 43,507 AU
same,signal intensity after subtraction of control signal,Reference peptide no. 45,0 AU
